Patent US7576177B2, “Hsp peptides and analogs for modulation of immune responses via antigen presenting cells” (Andromeda Biotech Ltd., priority 2002, dated 2009)

Assays:
[1] = test system: peripheral blood mononuclear cells cultured with GM-CSF and IL4 (dendritic cells); assay: Peripheral blood derived dendritic cells: secreted cytokines (IP-10, IL-8) and cell surface antigens (CD83, CD86); type: cell-based, human; conditions: overnight
Method: The effect of the compositions of the present invention on peripheral blood derived dendritic cells, was tested according to a protocol described by Re, F. and Strominger, J. L. 2001. Toll-like receptor 2 (Tlr2) and Tlr4 differentially activate human dendritic cells. (J Biol Chem 276: 37692-9). According to this method immature dendritic cells derived from human peripheral blood are used. The outcome after incubating the cells with tested molecules is different if the stimulation is through the Toll 4 receptor or the Toll 2 receptor. According to the authors, Toll 2 signaling by stimulation with zymosan is associated with a Th2 kind of response (exemplified by IL-8) and Toll 4 signaling, such as obtained by LPS stimulation (exemplified by IP-10), with a Th1 type of response. The compositions of the present invention were tested using a similar assay system in order to check which stimulation type they induce. […] The increase in CD86 expression after exposure of APCs to Hsps or Hsp derived peptides is important since CD86 (B7.2) is an essential component of the immunological synapse formed between T cells and APC. This synapse consists of CD80 and CD86 on the side of the APC and CD28 and CD40 on the side of the T cell. T cell recognition of peptide on APC without the concurrent expression of CD86 gives rise to anergy instead of a T cell response. Therefore in order to produce a response all components must be present.
The assay was based on the protocol described by Re, F. and Strominger, J. L. 2001. Toll-like receptor 2 (Tlr2) and Tlr4 differentially activate human dendritic cells. (J. Biol Chem 276: 37692-9).
Peripheral blood mononuclear cells were prepared from leucocytes from blood lots obtained from the blood bank. The cells were plated at 10^8 cells/10 ml/Petri dish in RPMI medium including 10% FCS and allowed to adhere at 37° C. for 2 hours. At the end of this time, the non-adherent cells were washed off the plates with PBS and the adherent cells resuspended in fresh medium as before. […]

[2] = test system: peripheral blood monocytes; assay: Peripheral blood monocytes: IP-10 after direct stimulation or preincubation then LPS; type: cell-based, human; conditions: peripheral blood monocytes, no preincubation, FIG. 4
Method: Peripheral blood mononuclear cells were prepared from leucocytes of blood lots obtained from the blood bank. The cells were plated at a concentration of 4×10^6 cell/ml/well in 24 well tissue culture dishes in medium containing 10% fetal calf serum. The cells were allowed to adhere for 2 hours at 37° C. After this time, non-adherent cells were washed away and the adherent cells incubated in fresh medium containing 10% human AB serum for 6-8 days, changing the medium after 4 days. These culture conditions were reported to give rise to monocytes.
For stimulation the medium was replaced with medium without serum. For preincubation, the cells were exposed overnight to the tested compounds at various concentrations and then LPS was added. The supernatant was collected after a further overnight incubation and tested for various cytokines by ELISA assays.

[3] = test system: BALB/c DO.11.10 bone marrow cells cultured for dendritic cells, cocultured with DO.11.10 T cells; assay: Education of mouse dendritic cells and stimulation of T-cells, cytokine content of supernatant; type: cell-based; conditions: 0.3 nM Ova peptide
Method: Whelan et al. (J. Immunol 164, 6453-6460, 2000) addressed the problem in mice by an experiment in which mouse bone marrow cells were grown for 6 days in culture with GM-CSF to give immature dendritic cells. These dendritic cells were then incubated overnight with LPS (known to drive cells to DC1) or with a nematode antigen. The reason for the choice of nematode antigen was that injection of this antigen in vivo gives rise to a Th2 response in animals. After this so-called “education” of the dendritic cells, they were washed and subsequently incubated with naive T cells in the presence of antigenic stimulus. The experiment was possible because of the use of transgenic mice in which all the T cells respond to the same peptide (OVA323-339) which absolves the system from any question of bias of the T cell response at the level of the T cells. Any bias should be a consequence of the “education” of the dendritic cells. After three days of incubation the cytokine responses produced by the T cells, were measured by ELISA. […] In contrast, nematode antigen incubation gave rise to more IL-4 (Th2) than did controls while the LPS incubation inhibited the IL4 response. Therefore, the nematode antigen was said to drive cells to DC2. A similar method was used for testing the compounds of the present invention: • 1. Bone marrow cells were extracted from the leg bones of DO.11.10 mice transgenic for the TcR. All cells from these mice respond to the OVA peptide ([…]). • 2. Bone marrow cells were plated at 10^6 cells/ml in 100 mm diameter tissue culture petri dishes in Iscove's medium supplemented with 10% FCS, […], 1 mM sodium pyruvate, penicillin/streptomycin (according to manufacturer's recommendations), non-essential amino acids, 50 μM β-mercaptoethanol and 10 ng/ml mGM-CSF. • 3. After 4 days, the medium was carefully removed and replaced with fresh medium • 4. After 6 days, the non-adherent cells were harvested and used as immature dendritic cells • 5. The immature dendritic cells are plated at 1×10^6 cells/ml, 1 ml/well in 24 well plates in the above medium with various reagents added at various concentrations and incubated overnight. This is the stage in which the dendritic cells are “educated” • 6. The next day the cells were harvested and washed 3 times then resuspended at 5×10^4 cells/ml in 1 ml of the above medium but without the addition of GM-CSF to be cocultured with T cells • 7. […] 5×10^5 T cells were cultured with the dendritic cells from step 6 in the presence of various concentrations of the OVA peptide (0, 0.3 nM, 3 nM and 30 nM). • 9. After 3 days PMA (50 ng/ml) and ionomycin (500 ng/ml) were added to further stimulate the cells. • 10. The next day the cell supernatants were collected and assayed for cytokine content (Interferon γ, IL4, IL-10 and IL-12).
The compound was tested for stimulation of DO.11.10 bone marrow cells according to the assay described above (Production and education of mouse dendritic cells and stimulation of T-cells).
BALB/c DO.11.10 bone marrow cells were cultured for dendritic cells and then stimulated with LPS 1 μg/ml, LPS 10 μg/ml, hsp60 3 μg/ml, hsp60 10 μg/ml, p277 5 μg/ml and p277 50 μg/ml. The cells were then transferred to wells with T cells from fresh BALB/c DO.11.10 mice and stimulated with OVA peptide at different concentrations (0, 0.3 nM, 3 nM, 30 nM). Supernatant was collected after 48 hours for assay. 30 μl was taken for IFN, 40 μl for IL4 and IL-10 and 50 μl for IL-12 assays. The results are presented in the following tables, as amount of cytokine (pg/ml), and in FIG. 1.

[4] = dendritic cells educated with 3 μg/ml
[5] = dendritic cells educated with 10 μg/ml

B1: hsp60: heat shock protein 60, mitochondrial chaperone, used as stimulus (protein)
chain: MLRLPTVFRQMRPVSRVLAPHLTRAYAKDVKFGADARALMLQGVDLLADAVAVTMGPKGRTVIIEQGWGSPKVTKDGVTVAKSIDLKDKYKNIGAKLVQDVANNTNEEAGDGTTTATVLARSIAKEGFEKISKGANPVEIRRGVMLAVDAVIAELKKQSKPVTTPEEIAQVATISANGDKEIGNIISDAMKKVGRKGVITVKDGKTLNDELEIIEGMKFDRGYISPYFINTSKGQKCEFQDAYVLLSEKKISSIQSIVPALEIANAHRKPLVIIAEDVDGEALSTLVLNRLKVGLQVVAVKAPGFGDNRKNQLKDMAIATGGAVFGEEGLTLNLEDVQPHDLGKVGEVIVTKDDAMLLKGKGDKAQIEKRIQEIIEQLDVTTSEYEKEKLNERLAKLSDGVAVLKVGGTSDVEVNEKKDRVTDALNATRAAVEEGIVLGGGCALLRCIPALDSLTPANEDQKIGIEIIKRTLKIPAMTIAKNAGVEGSLIVEKIMQSSSEVGYDAMAGDFVNMVEKGIIDPTKVVRTALLDAAGVASLLTTAEVVVTEIPKEEKDPGMGAMGGMGGGMGGGMF
modifications: Homo sapien
notes: heat shock protein 60, mitochondrial chaperone, used as stimulus
[1]; stimulus 10 ng/ml
  IP-10: 6 pg/mL
[1]; stimulus 0.1 μg/ml
  IP-10: 1 pg/mL
[1]; stimulus 1 μg/ml
  IP-10: 31 pg/mL
[2]
  IP-10 after direct stimulation: did not give rise to IP-10
[3]; [4]
  IFN secretion of T cells: 447.78 pg/mL
  IL-4 secretion of T cells: 35.96 pg/mL
  IL-10 secretion of T cells: 34.50 pg/mL
  IL-12 secretion of T cells: 95.00 pg/mL
[3]; [5]
  IFN secretion of T cells: 480.56 pg/mL
  IL-4 secretion of T cells: 24.29 pg/mL
  IL-10 secretion of T cells: 80.18 pg/mL
  IL-12 secretion of T cells: 126.25 pg/mL
